Measurements: patent US20250085298A1 (TRITON SYSTEMS, published 2025)

T1: rabbit α-crystallin A (CRYAA), native protein in rabbit intraocular fluid (rabbit, UniProt P02493 1-173, limits assumed)
T1 construct: Analyte of the lateral flow assay in rabbit samples; also called Crystallin-αA; αA-Crystallin
T1 sequence (looked up): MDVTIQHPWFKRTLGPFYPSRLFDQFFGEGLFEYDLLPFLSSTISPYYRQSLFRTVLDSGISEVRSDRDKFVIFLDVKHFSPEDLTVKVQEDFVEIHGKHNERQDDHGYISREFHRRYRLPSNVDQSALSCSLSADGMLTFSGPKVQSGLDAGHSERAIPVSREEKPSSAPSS


Legend:
[1] = biological target: T1, rabbit α-crystallin A (CRYAA), native …; test: lateral flow sandwich strip, MAB1601-AuNP conjugate with MAB1301 test line; swab of rabbit eye, Arm 3: 3 mm full-thickness laceration, AC/limbus, no confounder
Method: (§1) The expected results were that either one, or two, distinct red lines would form on the readout area of the test strip. The bottom half of the readout area on the nitrocellulose strip was expected to always show a red line (control), while appearance of the second line confirmed a positive result. The results were documented and whole test strip was imaged after removing the top of its plastic casing. The test strips were labelled and shipped on cold packs. For the second sample, 10-30 μL (as much as possible up to 30 μL) of the remaining ocular film was drawn by pipette and deposited in a microcentrifuge tube labeled with identities corresponding to the test strips. To this liquid sample, an equal volume of RNAlater solution was added and the sample was stored at −80° C. until shipment to the client on dry ice. Following sedation, rabbits were euthanized by intravenous barbiturate overdose. Euthasol® was delivered via the marginal ear vein at a concentration of 390 mg/ml, and a dose of 87 mg/kg. Following confirmation of euthanasia, whole corneas with sclera rims were collected and immediately placed in PBS. The medium was then exchanged for freshly made 4% PFA and tissue was fixed at room temperature for 23 hours. The tissue was then embedded in paraffin and shipped for further analysis. […]

[2] = biological target: T1, rabbit α-crystallin A (CRYAA), native …; test: lateral flow sandwich strip, MAB1601-AuNP conjugate with MAB1301 test line; swab of rabbit eye, Arm 9: 1 mm full-thickness puncture, peripheral cornea, no confounder
Method: as §1

binding result [1]	binding result [2]	Binder
binds	–	MAB1601 (Conjugate Ab; target recognition element) (antibody, mouse IgG1, kappa, V domains shown, Custom anti-CRYAA monoclonal antibody made in mice against the modified C-terminal CRYAA immunogen; In the assay its amines were coupled to carboxyl gold nanoparticles by EDC/sNHS chemistry; also called conjugate antibody; upstream target recognition element) VH: EVKLQESGPSLVKPSQTLSLTCSVTGDSITSGYWNWIRKFPGNKLEYMGYISYSGSTYFNPSLKSRISITRDTSKNQYYLQLNSVTTEDTATYYCSTGFAYWGQGTLVTVSA VL: DIVMSQSPSSLAVSVGEKVIMRCNSSQSLLYSGNRENYLAWYQQKPGQSPNLLIYWASRRASGVPDRFAGGGSGTDFTLTISSVKAEDLAVYYCQHYYNYPLTFGAGTRLELKR
–	binds	MAB1301 (Test Line Ab; test element) (antibody, mouse IgG1, kappa, V domains shown, Custom anti-CRYAA monoclonal antibody made in mice; It was immobilised on the nitrocellulose test line; also called MAB1301 T-line; test-line antibody) VH: EVKLQESGPSLVRPGASVKMSCKASGYTFTSYNMHWVKQTPRQGLEWIGAIYPGNGDTSYNQKFKGKATLTVDKSSSTAYMQLSSLTSEDSAVYFCARVVYYSNSYWYFDVWGTGTTVTVSA VL: DIVMSQSPSSLAVSVGEKVIMRCNSSQSLLYSGNRENYLAWYQQKPGQSPNLLIYWASRRASGVPDRFAGSGSGTDFTLTISSVKAEDLAVYYCQHYYNYPLTFGAGTRLELKR
